Assay [1] addresses cynomolgus monkey OX40 (cynomolgus monkey). Put plainly: flow cytometry on cOX40-Jurkat-NF-κB cells.
Assay [2] deals with human OX40 (human) (UniProt P43489). Put plainly: cell-based or functional assay.
The target is the same in assay [3]. Put plainly: flow cytometry, traditional IgG1 bivalent mAb on hOX40-Jurkat-NF-κB cells, APC anti-human IgG Fc detection.

Chain of human OX40 (human) (P43489 29-277): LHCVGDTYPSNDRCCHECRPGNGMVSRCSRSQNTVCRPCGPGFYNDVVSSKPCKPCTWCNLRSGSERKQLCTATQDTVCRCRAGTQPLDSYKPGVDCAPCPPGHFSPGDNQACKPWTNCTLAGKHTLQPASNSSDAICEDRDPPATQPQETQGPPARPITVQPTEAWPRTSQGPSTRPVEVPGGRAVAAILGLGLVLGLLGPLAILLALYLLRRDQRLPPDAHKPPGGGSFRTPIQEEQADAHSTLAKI

B1: hG1-20E5 (antibody, from another filing, V domains shown)
VH: EVQLQQSGPELVKPGASVKMSCKASGYTFTSYVMHWVKQKPGQGLEWIGYINPYNDGTKYNEKFKGKATLTSDKSSSTAYMELSSLTSEDSAVYYCANYYGSSLSMDYWGQGTSVTVSS
VL: DIQMTQTTSSLSASLGDRVTISCRASQDISNYLNWYQQKPDGTVKLLIYYTSRLHSGVPSRFSGSGSGTDYSLTISNLEQEDIATYFCQQGNTLPWTFGGGTKLEIKR
Turning to B1, the fold difference of EC50 against hOX40-Jurkat-NF-κB cells in assay [1] was below 2 fold. The percentage of GFP positive hOX40/hIL-12R/Jurkat-NF-κB reporter cells in the presence of A20-hFcγRI cells, EC50 with human OX40 (human) [2] amounted to 0.13 nM. The molecule also yielded an EC50 with human OX40 (human) [3] of 10.2 nM.

Source of the values: patent US20250236653A1.
